The supplement of paper PMC6757056
± gives the standard deviation of the averaged measurements.

B1: library; a variant is named by its letters at N, in order (parent)
chain: GCUGUCACCGGUGUAUUACCCUAGUGGUCGACCGGUCUGAUGAGUCUNNNNNNAGACGAAACAGC

What was measured:
hypoxanthine [1] = variants of: B1; assay: normalized RNA/DNA level with ligand (relative to sTRSVctl = 100) (log10 (% of sTRSVctl)); ligand: hypoxanthine (xanthine aptamer); higher = less ribozyme self-cleavage, higher mRNA level; conditions: ligand concentration (+) RNA-Seq: 5 mM, HEK293T, reporter: mCherry (pCS4076), ligand present: yes
Procedure, shortened: (§1)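 RNA level was computed as RNA reads over DNA reads divided by a spiked-in non-cleaving sequence or by the top sequences, then scaled and log-transformed. Scaling was ×100 with log10, the top group was 25 sequences, and the threshold was ≥100 DNA reads. The reads came from HEK293T cells transfected at 4 µg per 6-well well with ribozyme switch library plasmids (mCherry, or eGFP in some ligand experiments). Total RNA was extracted with EDTA 72 h after transfection, with any ligand added 1 h before it.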

hypoxanthine [2] = variants of: B1; assay: normalized RNA/DNA level without ligand (relative to sTRSVctl = 100) (log10 (% of sTRSVctl)); ligand: hypoxanthine (xanthine aptamer); higher = less ribozyme self-cleavage, higher mRNA level; conditions: HEK293T, reporter: mCherry (pCS4076), ligand present: no
Procedure, shortened: as §1

Variant	normalized RNA/DNA level with ligand (log10) (hypoxanthine [1])	normalized RNA/DNA level without ligand (log10) (hypoxanthine [2])
GCUGUCACCGGUGUAUUACCCUAGUGGUCGACCGGUCUGAUGAGUCUGCGGCUAGACGAAACAGC [GCGGCU]	1.971 ± 0.0061	1.84 ± 0.04
GCUGUCACCGGUGUAUUACCCUAGUGGUCGACCGGUCUGAUGAGUCUGCGGCCAGACGAAACAGC [GCGGCC]	2 ± 0.046	1.76 ± 0.076
GCUGUCACCGGUGUAUUACCCUAGUGGUCGACCGGUCUGAUGAGUCUCCGGUCAGACGAAACAGC [CCGGUC]	1.96 ± 0.039	1.95 ± 0.029
GCUGUCACCGGUGUAUUACCCUAGUGGUCGACCGGUCUGAUGAGUCUCCGGUAAGACGAAACAGC [CCGGUA]	1.93 ± 0.034	1.863 ± 0.0044
GCUGUCACCGGUGUAUUACCCUAGUGGUCGACCGGUCUGAUGAGUCUUCGGGUAGACGAAACAGC [UCGGGU]	1.81 ± 0.075	1.55 ± 0.13
GCUGUCACCGGUGUAUUACCCUAGUGGUCGACCGGUCUGAUGAGUCUUCGGGCAGACGAAACAGC [UCGGGC]	2.021 ± 0.017	1.99 ± 0.0053
GCUGUCACCGGUGUAUUACCCUAGUGGUCGACCGGUCUGAUGAGUCUUCGGGGAGACGAAACAGC [UCGGGG]	1.98 ± 0.05	1.69 ± 0.035
GCUGUCACCGGUGUAUUACCCUAGUGGUCGACCGGUCUGAUGAGUCUCCGGCGAGACGAAACAGC [CCGGCG]	1.94 ± 0.13	1.72 ± 0.14
GCUGUCACCGGUGUAUUACCCUAGUGGUCGACCGGUCUGAUGAGUCUCCGGCCAGACGAAACAGC [CCGGCC]	1.98 ± 0.029	2 ± 0.051
GCUGUCACCGGUGUAUUACCCUAGUGGUCGACCGGUCUGAUGAGUCUCCGGCUAGACGAAACAGC [CCGGCU]	2.04 ± 0.043	1.99 ± 0.024
GCUGUCACCGGUGUAUUACCCUAGUGGUCGACCGGUCUGAUGAGUCUCCGGGGAGACGAAACAGC [CCGGGG]	1.83 ± 0.057	1.34 ± 0.084
GCUGUCACCGGUGUAUUACCCUAGUGGUCGACCGGUCUGAUGAGUCUCCGGGUAGACGAAACAGC [CCGGGU]	2.04 ± 0.054	1.93 ± 0.15
GCUGUCACCGGUGUAUUACCCUAGUGGUCGACCGGUCUGAUGAGUCUUCGUACAGACGAAACAGC [UCGUAC]	1.94 ± 0.055	1.77 ± 0.031
GCUGUCACCGGUGUAUUACCCUAGUGGUCGACCGGUCUGAUGAGUCUUCGUAAAGACGAAACAGC [UCGUAA]	1.87 ± 0.04	1.53 ± 0.066
GCUGUCACCGGUGUAUUACCCUAGUGGUCGACCGGUCUGAUGAGUCUUCGUAUAGACGAAACAGC [UCGUAU]	1.92 ± 0.045	1.61 ± 0.024
GCUGUCACCGGUGUAUUACCCUAGUGGUCGACCGGUCUGAUGAGUCUACGUACAGACGAAACAGC [ACGUAC]	1.9 ± 0.041	1.55 ± 0.036
GCUGUCACCGGUGUAUUACCCUAGUGGUCGACCGGUCUGAUGAGUCUACGUAUAGACGAAACAGC [ACGUAU]	1.86 ± 0.057	1.39 ± 0.053
GCUGUCACCGGUGUAUUACCCUAGUGGUCGACCGGUCUGAUGAGUCUUCGGUCAGACGAAACAGC [UCGGUC]	2.034 ± 0.0059	1.969 ± 0.012
GCUGUCACCGGUGUAUUACCCUAGUGGUCGACCGGUCUGAUGAGUCUUCGGUUAGACGAAACAGC [UCGGUU]	1.938 ± 0.006	1.61 ± 0.04
GCUGUCACCGGUGUAUUACCCUAGUGGUCGACCGGUCUGAUGAGUCUUCGGUGAGACGAAACAGC [UCGGUG]	1.9763 ± 0.0017	1.67 ± 0.028
GCUGUCACCGGUGUAUUACCCUAGUGGUCGACCGGUCUGAUGAGUCUGCGGUUAGACGAAACAGC [GCGGUU]	1.919 ± 0.018	1.72 ± 0.056
